In article PMC8531759:
Values belong to the substance of their own block, whether it stands above or below them.

Columns and labels:
Assay in all cases: SEC; Sephacryl S-400R in buffer C (20 mM Na-phosphate pH 7.4, 100 mM NaCl, 0.05% dodecyl beta-maltoside); absorbance at 280 nm; apparent molecular weight by comparison to globular protein standards; self-association, hexamer
[1] = target: AbSGR-h D34N mutant (Anaerolineae bacterium SM23_63)
[2] = target: AbSGR-h D62N mutant (Anaerolineae bacterium SM23_63)
[3] = target: AbSGR-h H32A mutant (Anaerolineae bacterium SM23_63)
[4] = target: AbSGR-h T36A mutant (Anaerolineae bacterium SM23_63)
[5] = target: Anaerolineae bacterium SM23_63 SGR homolog (AbSGR-h), wild-type (Anaerolineae bacterium SM23_63)

Substance: AbSGR-h D62N mutant (enzyme)
stoichiometry N [2]: 6

Substance: Anaerolineae bacterium SM23_63 SGR homolog (AbSGR-h), wild-type (enzyme)
stoichiometry N [5]: 6

The next lines start with the values.

stoichiometry N [1]: 6
Substance: AbSGR-h D34N mutant (enzyme)

stoichiometry N [3]: 6
Substance: AbSGR-h H32A mutant (enzyme)

stoichiometry N [4]: 6
Substance: AbSGR-h T36A mutant (enzyme)
